B1: Interferon regulatory factor 3 (Homo sapiens), Q14653 (parent)
chain: MGTPKPRILPWLVSQLDLGQLEGVAWVNKSRTRFRIPWKHGLRQDAQQEDFGIFQAWAEATGAYVPGRDKPDLPTWKRNFRSALNRKEGLRLAEDRSKDPHDPHKIYEFVNSGVGDFSQPDTSPDTNGGGSTSDTQEDILDELLGNMVLAPLPDPGPPSLAVAPEPCPQPLRSPSLDNPTPFPNLGPSENPLKRLLVPGEEWEFEVTAFYRGRQVFQQTISCPEGLRLVGSEVGDRTLPGWPVTLPDPGMSLTDRGVMSYVRHVLSCLGGGLALWRAGQWLWAQRLGHCHTYWAVSEELLPNSGHGPDGEVPKDKEGGVFDLGPFIVDLITFTEGSGRSPRYALWFCVGESWPQDQPWTKRLVMVKVVPTCLRALVEMARVGGASSLENTVDLHISNSHPLSLTSDQYKAYLQDLVEGMDFQGPGES

Variants of: B1
Details: with cbp_human CREBBP

Variant | effect of a mutation on the interaction
MGTPKPRILPWLVSQLDLGQLEGVAWVNKSRTRFRIPWKHGLRQDAQQEDFGIFQAWAEATGAYVPGRDKPDLPTWKRNFRSALNRKEGLRLAEDRSKDPHDPHKIYEFVNSGVGDFSQPDTSPDTNGGGSTSDTQEDILDELLGNMVLAPLPDPGPPSLAVAPEPCPQPLRSPSLDNPTPFPNLGPSENPLKRLLVPGEEWEFEVTAFYRGRQVFQQTISCPEGLRLVGSEVGDRTLPGWPVTLPDPGMSLTDRGVMSYVRHVLSCLGGGLALWRAGQWLWAQRLGHCHTYWAVSEELLPNSGHGPDGEVPKDKEGGVFDLGPFIVDLITFTEGSGRSPRYALWFCVGESWPQDQPWTKRLVMVKVVPTCLRALVEMARVGGASSLENTVDLHIDNDHPLDLDDDQYKAYLQDLVEGMDFQGPGES [S396D;S398D;S402D;T404D;S405D] | increasing interaction strength

Source: IntAct's records for PubMed 20581830
